# Source: US20140294884A1 (Novartis, published 2014)
# B1: NadA allele 1 (strain MC58) (other)
# chain: ATSDDDVKKAATVAIVAAYNNGQEINGFKAGETIYDIGEDGTITQKDATAADVEADDFKGLGLKKVVTNLTKTVNENKQNVDAKVKAAESEIEKLTTKLADTDAALADTDAALDETTNALNKLGENITTFAEETKTNIVKIDEKLEAVADTVDKHAEAFNDIADSLDETNTKADEAVKTANEAKQTAEETKQNVDAKVKAAETAAGKAEAAAGTANTAADKAEAVAAKVTDIKADIATNKADIAKNSARIDSLDKNVANLRKETRQGLAEQAALSGLFQPYNVGRFNVTAAVGGYKSESAVAIGTGFRFTENFAAKAGVAVGTSSGSSAAYHVGVNYEW
# notes: Oligomer of about 170 kDa; also called allele 1 of 961
# B2: NadA allele 2 (strain 90/18311) (other)
# chain: ATNDDDVKKAATVAIAAAYNNGQEINGFKAGETIYDIDEDGTITKKDATAADVEADDFKGLGLKKVVTNLTKTVNENKQNVDAKVKAAESEIEKLTTKLADTDAALDATTNALNKLGENITTFAEETKTNIVKIDEKLEAVADTVDKHAEAFNDIADSLDETNTKADEAVKTANEAKQTAEETKQNVDAKVKAAETAAGKAEAAAGTANTAADKAEAVAAKVTDIKADIATNKDNIAKKANSADVYTREESDSKFVRIDGLNATTEKLDTRLASAEKSITEHGTRLNGLDRTVSDLRKETRQGLAEQAALSGLFQPYNVGRFNVTAAVGGYKSESAVAIGTGFRFTENFAAKAGVAVGTSSGSSAAYHVGVNYEW
# notes: also called allele 2 of 961
# Tests used:
# [1] = biological target: receptor for App on Chang conjunctiva epithelial cells (proteinaceous, not identified) (human); assay: cell-based or functional assay
# [2] = biological target: receptor for App on Chang conjunctiva epithelial cells (proteinaceous, not identified) (human); assay: FACS binding assay on Chang cells (FIG. 35)
# [3] = biological target: human receptor for NadA on Chang conjunctiva epithelial cells (pronase-sensitive protein, not identified) (human); assay: FACS on Chang cells, MFI against protein concentration
# [4] = biological target: the molecule itself; assay: Western blot of whole cell lysates with anti-NadA serum (self-association)
molecule,measurement,setting,value
App S267A expressed on the surface of E. coli (pET-AppS267A transformants),"fluorescence shift (cells positive to adhesion), FACS adhesion of E. coli to Chang cells",[1],91%
App expressed from the full-length gene on the surface of E. coli (pET-App transformants),"fluorescence shift (cells positive to adhesion), FACS adhesion of E. coli to Chang cells",[1],90.3%
App-His,concentration at which binding reaches a plateau,[2],50 µg/mL
Appβ expressed on the surface of E. coli (pET-Appβ transformants),"fluorescence shift, FACS adhesion of E. coli to Chang cells",[1],74.2%
NadA (purified recombinant protein used in FACS binding to Chang cells),concentration at which binding reaches a plateau,[3],200 µg/mL
B1,binding result,[4],binds
B2,binding result,[4],binds
